This is an account of results in PMC9321951, “Thiol redox switches regulate the oligomeric state of cyanobacterial Rre1, RpaA and RpaB response regulators” (Febs Letters, 2022).

Series [1] concerns the target Regulator of Photosynthesis and Photopigment-related gene expression A (RppA), full-length, MBP-tagged (Synechocystis sp. PCC 6803) (UniProt Q55933). Description: non-reducing urea-SDS/PAGE; 2.5 µM RppA with 2 mM diamide, 30 min, room temperature; non-reducing SDS-6 M urea-8% PAGE.
For series [2] the target is unchanged. In words: SEC; RppA oxidised with 2 mM diamide, desalted; 0.85 mg on Superdex S200 10/300GL Increase; 100 mM HEPES pH 8.0, 100 mM NaCl; approximate masses from a calibration curve. (In general: Size exclusion chromatography separates by hydrodynamic size, large species first.)
Series [3] has as its target Regulator of Phycobilisome Association B (RpaB), full-length, MBP-tagged (Synechocystis sp. PCC 6803). Description: SEC; RpaB oxidised with 2 mM H2O2, desalted; 0.85 mg on Superdex S200 10/300GL Increase; 5% glycerol, 300 mM NaCl, 100 mM HEPES pH 8.0; approximate masses from a calibration curve.
The target is the same in series [4]. Description: non-reducing urea-SDS/PAGE; 2.5 µM Rre1, RpaA or RpaB, air-exposed untreated or with 2 mM diamide or 2 mM H2O2, 30 min, room temperature; non-reducing SDS-6 M urea-8% PAGE; shows disulfide-linked oligomers.
Series [5] deals with the molecule itself. Description: SEC; Rre1 or RpaA oxidised with 2 mM H2O2, desalted; 0.85 mg on Superdex S200 10/300GL Increase; 100 mM HEPES pH 8.0, 100 mM NaCl; approximate masses from a calibration curve.

Several values for one entry are separate records, joined by “and”; a condition that tells them apart may be missing. Equal entries are not always repeated.

What is called stoichiometry N is a count of units in the complex or per binding partner. Consider “Regulator of Photosynthesis and Photopigment-related gene expression A (RppA), full-length, MBP-tagged (from UniProt Q55933 1-234) (natural protein)”, for which the stoichiometry N in series [1] and in series [2] was 3 each time.
“Regulator of Phycobilisome Association B (RpaB), full-length, MBP-tagged (natural protein)”: the stoichiometry N in series [3] was 4 and 3; in series [4] it was 2.

B1: Response Regulator 1 (Rre1), full-length, MBP-tagged (natural protein, Synechocystis sp. PCC 6803, UniProt P72781 1-231, looked up)
chain: MAEPISLLLVDDEPGVRESVQAFLEDSGDFKVDLAANATEAWDYLQHHLPALVISDIMMPQVDGYQFLQKLREDARFQSLPVVFLTARGMTGDRIQGYQTGCDAFLSKPFDPDELEAIVRNLLARQQASSDAGSESAKLQEIYQEIRALKEQIGQPSGIHTTPSPIKLDFTPREQSVLDLVSQGLMNKEIAAQLKTSVRNVEKYVSRLFTKTGTNSRTELVRFALQHGLTE
notes: Rre1 (response regulator 1), Synechocystis sp; Cloned KpnI/XhoI into pETG-41A; theoretical mass of the MBP-tagged monomer printed as 75 kDa
As to B1, the “stoichiometry N” value in series [5] is 3 and 4.
